Measurements: patent publication US20260207798A1, “CYCLIC PEPTIDES AS PET IMAGING AGENTS OF GRANZYME B” (priority 2022, published 2026)
Bridge positions count the residues as written; N and C are the ends.

Target: T1, human Granzyme B (human, UniProt P10144 21-247)
T1 construct: Captured on a Series S Streptavidin chip for SPR; also called hGranzyme B; GzmB
Assay: SPR, Biacore 8k+, hGranzyme B captured on SA chip, single cycle kinetics, 1:1 model
Procedure: The kinetics of test peptide binding to human Granzyme B (hGranzyme B) was determined by SPR. All experiments were performed at 25° C. using the Biacore 8k+ instrument (Cytiva, Marlborough, MA). The Biacore 8k+ Insight Evaluation Software Version 3.0 was used to fit the data with a 1:1 binding model to determine the association rate constant kₐ (M⁻¹s⁻¹, where “M” ~equals molar and “s” ~equals seconds) and the dissociation rate constant kd (s⁻¹). These rate constants were used to calculate the equilibrium dissociation constant. KD (M)=kd/kₐ.
To measure the binding kinetics of peptides of interest, surfaces were prepared by a capture method to a Series S Streptavidin (SA) chip using a 1×HBS-EP+ running buffer (Cytiva). hGranzyme B was diluted to 10 μg/mL in IX HBS-EP+ and flowed over spot 2 of each flow cell on the chip at a flow rate of 10 ul/min for 20 s to achieve a level of capture of ~1100 RU. An unmodified spot 1 of each flow cell was used as a matrix binding control or reference surface. Binding kinetics were measured using single cycle kinetics at 25° C. by injecting 5 concentrations with 3-fold serial dilutions of test peptides from 0.01 μM to 1 μM. Compound dilutions were performed manually in a running buffer containing 1×HBS-EP+(Cytiva), and a final concentration of 2% DMSO. The interaction analyses over hGranzyme B, were performed using a 120 s association time and a 900 s dissociation time. All experiments were conducted at a flow rate of 50 μL/min with a data collection rate of 10 Hz.
Peptide dilution series included 2 zero concentration points (no compound) which were averaged and subtracted from the peptide concentration injection as DMSO control responses. Binding data acquired from the reference surface (matrix binding control) were subtracted from the binding data for hGranzyme B surface on the chip to determine specific binding. Next, the association phase data were solvent corrected to account for any signal fluctuation throughout the experiment due to subtle DMSO concentration differences. Corrected response data were analyzed using the Biacore 8k+ Evaluation Software Version 3.0 according to the manufacturer. SPR data for representative compounds of the disclosure are found in Table 8.

T1 sequence (P10144 21-247 limits assumed): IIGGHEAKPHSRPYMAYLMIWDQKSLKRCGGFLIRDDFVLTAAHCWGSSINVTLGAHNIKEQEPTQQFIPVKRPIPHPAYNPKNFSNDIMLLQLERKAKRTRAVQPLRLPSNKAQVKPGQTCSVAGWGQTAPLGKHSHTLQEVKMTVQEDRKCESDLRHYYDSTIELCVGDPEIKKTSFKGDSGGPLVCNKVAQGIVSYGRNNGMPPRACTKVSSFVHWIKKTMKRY

Row | Binder | Kd
1 | {CH2CO}-FNFEDQSAETWQPCG-NH2 (thioether N-14; SMILES C[C@@H]1NC(=O)[C@H](CO)NC(=O)[C@H](CCC(N)=O)NC(=O)[C@H](CC(=O)O)NC(=O)[C@H](CCC(=O)O)NC(=O)[C@H](Cc2ccccc2)NC(=O)[C@H](CC(N)=O)NC(=O)[C@H](Cc2ccccc2)NC(=O)CSC[C@@H](C(=O)NCC(N)=O)NC(=O)[C@@H]2CCCN2C(=O)[C@H](CCC(N)=O)NC(=O)[C@H](Cc2c[nH]c3ccccc23)NC(=O)[C@H]([C@@H](C)O)NC(=O)[C@H](CCC(=O)O)NC1=O) [Compound 73a] | 21.3 nM
2 | {CH2CO}-FNFEDQSAATWQPCG-NH2 (thioether N-14; SMILES C[C@@H]1NC(=O)[C@H](C)NC(=O)[C@H](CO)NC(=O)[C@H](CCC(N)=O)NC(=O)[C@H](CC(=O)O)NC(=O)[C@H](CCC(=O)O)NC(=O)[C@H](Cc2ccccc2)NC(=O)[C@H](CC(N)=O)NC(=O)[C@H](Cc2ccccc2)NC(=O)CSC[C@@H](C(=O)NCC(N)=O)NC(=O)[C@@H]2CCCN2C(=O)[C@H](CCC(N)=O)NC(=O)[C@H](Cc2c[nH]c3ccccc23)NC(=O)[C@H]([C@@H](C)O)NC1=O) [Compound 77a] | 29.2 nM
3 | {CH2CO}-FNFEDQSAQTWQPCG-NH2 (thioether N-14; SMILES C[C@@H]1NC(=O)[C@H](CO)NC(=O)[C@H](CCC(N)=O)NC(=O)[C@H](CC(=O)O)NC(=O)[C@H](CCC(=O)O)NC(=O)[C@H](Cc2ccccc2)NC(=O)[C@H](CC(N)=O)NC(=O)[C@H](Cc2ccccc2)NC(=O)CSC[C@@H](C(=O)NCC(N)=O)NC(=O)[C@@H]2CCCN2C(=O)[C@H](CCC(N)=O)NC(=O)[C@H](Cc2c[nH]c3ccccc23)NC(=O)[C@H]([C@@H](C)O)NC(=O)[C@H](CCC(N)=O)NC1=O) [Compound 74a] | 23.9 nM

The next lines start with the values.

Row | Kd | Binder
4 | 34.8 nM | {CH2CO}-FNFEDQSASTWQPCG-NH2 (thioether N-14; SMILES C[C@@H]1NC(=O)[C@H](CO)NC(=O)[C@H](CCC(N)=O)NC(=O)[C@H](CC(=O)O)NC(=O)[C@H](CCC(=O)O)NC(=O)[C@H](Cc2ccccc2)NC(=O)[C@H](CC(N)=O)NC(=O)[C@H](Cc2ccccc2)NC(=O)CSC[C@@H](C(=O)NCC(N)=O)NC(=O)[C@@H]2CCCN2C(=O)[C@H](CCC(N)=O)NC(=O)[C@H](Cc2c[nH]c3ccccc23)NC(=O)[C@H]([C@@H](C)O)NC(=O)[C@H](CO)NC1=O) [Compound 79a]
5 | 38.8 nM | {CH2CO}-FNFEDQSALTWQPCG-NH2 (thioether N-14; SMILES CC(C)C[C@@H]1NC(=O)[C@H](C)NC(=O)[C@H](CO)NC(=O)[C@H](CCC(N)=O)NC(=O)[C@H](CC(=O)O)NC(=O)[C@H](CCC(=O)O)NC(=O)[C@H](Cc2ccccc2)NC(=O)[C@H](CC(N)=O)NC(=O)[C@H](Cc2ccccc2)NC(=O)CSC[C@@H](C(=O)NCC(N)=O)NC(=O)[C@@H]2CCCN2C(=O)[C@H](CCC(N)=O)NC(=O)[C@H](Cc2c[nH]c3ccccc23)NC(=O)[C@H]([C@@H](C)O)NC1=O) [Compound 80a]
6 | 34.4 nM | {CH2CO}-FNFEDQSAFTWQPCG-NH2 (thioether N-14; SMILES C[C@@H]1NC(=O)[C@H](CO)NC(=O)[C@H](CCC(N)=O)NC(=O)[C@H](CC(=O)O)NC(=O)[C@H](CCC(=O)O)NC(=O)[C@H](Cc2ccccc2)NC(=O)[C@H](CC(N)=O)NC(=O)[C@H](Cc2ccccc2)NC(=O)CSC[C@@H](C(=O)NCC(N)=O)NC(=O)[C@@H]2CCCN2C(=O)[C@H](CCC(N)=O)NC(=O)[C@H](Cc2c[nH]c3ccccc23)NC(=O)[C@H]([C@@H](C)O)NC(=O)[C@H](Cc2ccccc2)NC1=O) [Compound 78a]
